Reference: patent US20110076279A1 (SCHERING, published 2011)

Tests used:
human VEGF165 (hVEGF165) [1] = biological target: T1, human VEGF165 (hVEGF165) (human, UniProt P15692 207-395); assay: DELFIA competition, biotinylated hVEGF165 0.5 µg/ml plus periplasmic scFv on VEGF-R1 or VEGF-R2 coated plate
[2] = biological target: T2, murine VEGF165 (mVEGF165) (murine, UniProt Q00731-2 27-190); assay: sandwich ELISA, antibody coated 5 ug/ml; sandwich ELISA, Ab coated at 5 ug/ml, murine VEGF165 at 1 ug/ml; signal at background, i.e. no binding
T2 construct: also called rMu-VEGF165; recombinant mVEGF165
T2 sequence (looked up): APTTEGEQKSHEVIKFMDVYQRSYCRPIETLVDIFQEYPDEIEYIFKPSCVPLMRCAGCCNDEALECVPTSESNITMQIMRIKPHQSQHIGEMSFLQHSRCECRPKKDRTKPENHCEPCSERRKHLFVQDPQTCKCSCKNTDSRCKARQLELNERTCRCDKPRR
Method: (§1) The plate was blocked with 30% ChemiBlock™ reagent (Millipore) in PBS for one hour at room temperature, and 30, 60, or 100 μl of CHO-K1 culture supernatant for each mutant, or 1 μg/ml of wild-type hVEGF₁₂₁, recombinant hVEGF₁₆₅, or recombinant mVEGF₁₆₅, was added to appropriate wells. After one hour of incubation, the plate was washed and incubated with a biotinylated goat polyclonal anti-VEGF antibody for one hour at room temperature. Detection was performed with HRP-conjugated streptavidin, followed by TMB chromogenic substrate (Calbiochem) using manufacturer protocol.

hVEGF121-G88S = biological target: T3, hVEGF121-G88S (human, UniProt P15692-9 27-147, G88S); assay: sandwich ELISA, antibody coated 5 ug/ml
T3 construct: Transiently expressed in CHO-K1 cells; culture supernatant used
T3 sequence (looked up): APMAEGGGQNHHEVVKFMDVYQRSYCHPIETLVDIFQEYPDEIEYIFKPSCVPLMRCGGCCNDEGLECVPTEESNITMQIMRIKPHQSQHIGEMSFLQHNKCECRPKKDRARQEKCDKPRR
Method: as §1

wild-type hVEGF121 = biological target: T4, wild-type hVEGF121 (human, UniProt P15692-9 27-147); assay: sandwich ELISA, antibody coated 5 ug/ml
T4 construct: Isoform VEGF121 of P15692
T4 sequence (looked up): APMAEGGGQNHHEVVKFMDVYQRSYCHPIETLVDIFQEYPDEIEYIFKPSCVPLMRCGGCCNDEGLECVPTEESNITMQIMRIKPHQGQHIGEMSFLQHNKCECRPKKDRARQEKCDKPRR
Method: as §1

hVEGF121-G92A = biological target: T5, hVEGF121-G92A (human, UniProt P15692-9 27-147, G92A); assay: sandwich ELISA, antibody coated 5 ug/ml
T5 construct: Transiently expressed in CHO-K1 cells; culture supernatant used
T5 sequence (looked up): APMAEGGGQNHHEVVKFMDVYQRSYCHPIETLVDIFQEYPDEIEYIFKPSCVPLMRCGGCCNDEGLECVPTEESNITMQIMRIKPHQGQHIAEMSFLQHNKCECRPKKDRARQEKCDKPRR
Method: as §1

hVEGF121-M81A = biological target: T6, hVEGF121-M81A (human, UniProt P15692-9 27-147); assay: sandwich ELISA, antibody coated 5 ug/ml
T6 construct: Transiently expressed in CHO-K1 cells; culture supernatant used
T6 sequence (looked up): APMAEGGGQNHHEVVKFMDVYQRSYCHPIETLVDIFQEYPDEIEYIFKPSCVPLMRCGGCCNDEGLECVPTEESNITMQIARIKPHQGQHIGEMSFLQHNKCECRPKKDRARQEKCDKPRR
Method: as §1

hVEGF121-Q89A = biological target: T7, hVEGF121-Q89A (human, UniProt P15692-9 27-147, Q89A); assay: sandwich ELISA, antibody coated 5 ug/ml
T7 construct: Transiently expressed in CHO-K1 cells; culture supernatant used
T7 sequence (looked up): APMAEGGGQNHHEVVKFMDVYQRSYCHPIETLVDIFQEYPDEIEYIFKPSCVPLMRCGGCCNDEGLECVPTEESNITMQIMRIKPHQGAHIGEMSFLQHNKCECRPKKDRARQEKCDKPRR
Method: as §1

human VEGF165 (hVEGF165) [3] = biological target: T1, human VEGF165 (hVEGF165); assay: sandwich ELISA, antibody coated 5 ug/ml
Method: as §1

human VEGF165 (hVEGF165) [4] = biological target: T1, human VEGF165 (hVEGF165); assay: cell-based or functional assay
human VEGF165 (hVEGF165) [5] = biological target: T1, human VEGF165 (hVEGF165); assay: Biacore, IgG2 (summary table)
Method: Dilution and running buffer for these experiments was HBS-EP (Biacore) with 1:50 dilution of Chemiblocker® (Chemicon). […] Antibody concentrations were approximately 0.5 μg/ml. hVEGF₁₆₅ expressed from sf21 cells was injected over five minutes at 30 μl/minute using the Kinject feature with 15 minute dissociation over fc1 and 2. […] Regenerations were performed with two injections of 100 mM HCl at 50 μl/minutes for twelve seconds each. Data was processed in Scrubber2 and fit by a 1:1 Langmuir interaction model after double referencing of the control flow cell and blank injections.

human VEGF165 (hVEGF165) [6] = biological target: T1, human VEGF165 (hVEGF165); assay: Biacore
human VEGF165 (hVEGF165) [7] = biological target: T1, human VEGF165 (hVEGF165); assay: cell-based or functional assay; remark: listed apart in the source

Row | Binder | percent inhibition of hVEGF165 binding to receptor (human VEGF165 (hVEGF165) [1]) | fold over background [2] | fold over background (hVEGF121-G88S) | fold over background (wild-type hVEGF121) | fold over background (hVEGF121-G92A) | fold over background (hVEGF121-M81A) | fold over background (hVEGF121-Q89A) | fold over background (human VEGF165 (hVEGF165) [3]) | Inhibition of HUVEC proliferation, HEK 293 hVEGF165, EC50 (human VEGF165 (hVEGF165) [4]) | Kd (human VEGF165 (hVEGF165) [5]) | off-rate relative to Bevacizumab (human VEGF165 (hVEGF165) [6]) | IC50 (human VEGF165 (hVEGF165) [7])
1 | XPA.10.072 scFv (scFv, part only; not given: linker, domain order, tags, V domains shown, not shown: another chain or arm of the molecule; large carriers; small tags and cut ends) VH: RLQLVQSGAEVRKPGASVKVSCKASGYSFTGHYIHWARQAPGQGLEWMGWINPYSGGTNFPREFQGRVTMTRDTSVNTVYMELTRLTSDDTSVYYCARDHRIVGGLDYWGQGTLVTVSS VL: QSVLTQPPSASGTPGQRVTISCSGSSSNLGSNFVYWYQQLPGTAPKLLIYRNHQRPSGVPDRFSGSKSGTSASLAISGLRSEDEADYYCASWDDSLRVVVFGGGTKLTVL | > 60% |  |  |  |  |  |  |  |  |  |  | 
2 | XPA.10.064 scFv (scFv, part only; not given: linker, domain order, tags, V domains shown, not shown: another chain or arm of the molecule; large carriers; small tags and cut ends) VH: EVQLVQSGAEVRKPGASVKVSCKASGYSFTGHYIHWVRQAPGQGLEWMGWINPYSGGTNFPREFQGRVTMTRDTSVNTVYMELTRLTSDDTSVYYCARDHRIVGGLDYWGQGTLVTVSS VL: SYVLTQPPSASGTPGQRVTISCSGSSSNIGINYVYWYQQLPGTAPKLLIYRNDQRPSGVPDRFSGSKSGTSASLAISGLRSEDEADYYCATWDDSLSGVVFGGGTKVTVL | > 60% |  |  |  |  |  |  |  |  |  |  | 
3 | XPA.10.064 IgG2 (antibody, V domains shown, Fully human antibody from an scFv phage library, converted to IgG2 (gamma-2 heavy chain constant region); also called VPA.10.064) VH: EVQLVQSGAEVRKPGASVKVSCKASGYSFTGHYIHWVRQAPGQGLEWMGWINPYSGGTNFPREFQGRVTMTRDTSVNTVYMELTRLTSDDTSVYYCARDHRIVGGLDYWGQGTLVTVSS VL: SYVLTQPPSASGTPGQRVTISCSGSSSNIGINYVYWYQQLPGTAPKLLIYRNDQRPSGVPDRFSGSKSGTSASLAISGLRSEDEADYYCATWDDSLSGVVFGGGTKVTVL |  | 0.7 fold | 0.9 fold | 29.1 fold | 22.8 fold | 9.5 fold | 3.5 fold | 23 fold | 0.66 µg/mL | 1.5 nM | ~2 fold | 
4 | XPA.10.072 IgG2 (antibody, V domains shown, Fully human antibody from an scFv phage library, converted to IgG2 (gamma-2 heavy chain constant region); also called XPA.072; VPA.10.072) VH: RLQLVQSGAEVRKPGASVKVSCKASGYSFTGHYIHWARQAPGQGLEWMGWINPYSGGTNFPREFQGRVTMTRDTSVNTVYMELTRLTSDDTSVYYCARDHRIVGGLDYWGQGTLVTVSS VL: QSVLTQPPSASGTPGQRVTISCSGSSSNLGSNFVYWYQQLPGTAPKLLIYRNHQRPSGVPDRFSGSKSGTSASLAISGLRSEDEADYYCASWDDSLRVVVFGGGTKLTVL |  | 1.1 fold | 1 fold | 31.8 fold | 30.5 fold | 13.4 fold | 3.3 fold | 29.2 fold | 0.68 µg/mL | 1.7 nM | ~2 fold | 
5 | XPA.10.064 scFv-Fc (Fc fusion, not shown: a dimerising Fc or GST; small tags and cut ends) VH: EVQLVQSGAEVRKPGASVKVSCKASGYSFTGHYIHWVRQAPGQGLEWMGWINPYSGGTNFPREFQGRVTMTRDTSVNTVYMELTRLTSDDTSVYYCARDHRIVGGLDYWGQGTLVTVSS VL: SYVLTQPPSASGTPGQRVTISCSGSSSNIGINYVYWYQQLPGTAPKLLIYRNDQRPSGVPDRFSGSKSGTSASLAISGLRSEDEADYYCATWDDSLSGVVFGGGTKVTVL |  |  |  |  |  |  |  |  |  |  |  | 0.41 µg/mL
6 | XPA.10.072 scFv-Fc (Fc fusion, not shown: a dimerising Fc or GST; small tags and cut ends) VH: RLQLVQSGAEVRKPGASVKVSCKASGYSFTGHYIHWARQAPGQGLEWMGWINPYSGGTNFPREFQGRVTMTRDTSVNTVYMELTRLTSDDTSVYYCARDHRIVGGLDYWGQGTLVTVSS VL: QSVLTQPPSASGTPGQRVTISCSGSSSNLGSNFVYWYQQLPGTAPKLLIYRNHQRPSGVPDRFSGSKSGTSASLAISGLRSEDEADYYCASWDDSLRVVVFGGGTKLTVL |  |  |  |  |  |  |  |  |  |  |  | > 1 µg/mL
